Reference: patent publication US20240368668A1, “SUBSTRATES AND BIOMARKERS OF ADAMTS7” (The Broad Institute, Inc., priority 2021, published 2024)
Square brackets hold non-standard residues; d marks the D form. Ends that are not written are not given here.

What follows are substances tested against T1, mouse ADAMTS7 (Mus musculus, UniProt Q68SA9) (assay: TMT10 TAILS N-terminomics, SMC2 experiment (process replicates, trypsin/AspN digest)). Settings: SMC2_TAILS HC; log fold change of N-terminal peptide, Ad-mADAMTS7 WT over Luc.
T1 construct: Full-length mouse Adamts7 1-1857 (Uniprot Q68SA9, WT or E373Q catalytic mutant); expressed in transfected cells; host or cells: Human Coronary Artery Smooth Muscle Cells (HCA-SMC, Lonza), adenovirus 50 MOI
T1 sequence (Q68SA9 221-1657): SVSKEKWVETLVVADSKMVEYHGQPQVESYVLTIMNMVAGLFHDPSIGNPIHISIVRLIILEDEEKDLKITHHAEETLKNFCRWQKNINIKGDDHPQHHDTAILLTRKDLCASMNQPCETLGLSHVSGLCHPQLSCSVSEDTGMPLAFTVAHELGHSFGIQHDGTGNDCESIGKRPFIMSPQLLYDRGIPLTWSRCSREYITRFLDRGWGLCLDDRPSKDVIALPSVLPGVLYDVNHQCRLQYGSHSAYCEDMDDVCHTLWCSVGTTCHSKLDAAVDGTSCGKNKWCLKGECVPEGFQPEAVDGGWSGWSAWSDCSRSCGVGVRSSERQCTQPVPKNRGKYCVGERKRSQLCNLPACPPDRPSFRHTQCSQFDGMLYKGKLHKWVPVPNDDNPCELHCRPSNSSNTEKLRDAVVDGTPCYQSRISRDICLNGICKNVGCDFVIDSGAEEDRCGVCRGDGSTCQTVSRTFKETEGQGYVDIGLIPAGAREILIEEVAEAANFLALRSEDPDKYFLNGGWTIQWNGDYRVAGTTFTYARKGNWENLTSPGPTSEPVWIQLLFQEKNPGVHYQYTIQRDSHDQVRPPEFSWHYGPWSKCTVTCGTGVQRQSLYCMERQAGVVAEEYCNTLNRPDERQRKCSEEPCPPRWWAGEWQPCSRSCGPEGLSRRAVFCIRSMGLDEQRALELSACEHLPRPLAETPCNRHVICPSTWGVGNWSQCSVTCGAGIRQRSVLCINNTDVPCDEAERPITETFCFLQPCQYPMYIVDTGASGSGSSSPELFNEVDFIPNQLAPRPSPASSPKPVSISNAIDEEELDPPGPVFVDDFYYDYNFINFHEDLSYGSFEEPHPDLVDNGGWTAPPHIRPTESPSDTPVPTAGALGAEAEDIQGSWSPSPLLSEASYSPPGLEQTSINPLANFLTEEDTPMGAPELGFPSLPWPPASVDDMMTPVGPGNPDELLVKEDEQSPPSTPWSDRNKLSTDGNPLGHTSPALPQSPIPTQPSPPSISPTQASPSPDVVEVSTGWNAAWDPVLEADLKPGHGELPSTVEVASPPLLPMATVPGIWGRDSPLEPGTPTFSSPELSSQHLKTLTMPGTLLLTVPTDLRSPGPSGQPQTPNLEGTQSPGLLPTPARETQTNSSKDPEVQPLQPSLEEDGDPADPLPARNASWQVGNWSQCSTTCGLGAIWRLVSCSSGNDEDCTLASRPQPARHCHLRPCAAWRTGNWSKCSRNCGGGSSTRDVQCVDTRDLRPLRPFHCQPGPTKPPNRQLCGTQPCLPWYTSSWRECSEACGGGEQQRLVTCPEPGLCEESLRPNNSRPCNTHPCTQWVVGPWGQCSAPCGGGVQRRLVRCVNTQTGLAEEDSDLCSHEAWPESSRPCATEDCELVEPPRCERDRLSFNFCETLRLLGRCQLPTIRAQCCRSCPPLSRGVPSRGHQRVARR
Format: cell-based
How it was run: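 Full-length mouse ADAMTS7 (WT or E373Q mutant, C-terminal 3xFLAG) or luciferase was transduced via adenovirus, 50 MOI, into HCA-SMC (SMC1, SMC2) or HUVEC. SMC1: pooled media, technical triplicates 400 ug; SMC2: process triplicates 300 ug; HUVEC: process triplicates 200 ug, bFGF2 10 ng/ml.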

logFC.mWT.over.Luc	Substance
0.79	VCAN_3367 (FKNSSSAK; listed as Homo sapiens)
0.88	VIM_276 (YESVAAKNLQ; listed as Homo sapiens)

Same assay, conditions: SMC2_TAILS HC; log fold change, mWT over Luc

Substance	logFC.mWT.over.Luc
ACTG1_105 (LTEAPLNPKANR; listed as Homo sapiens)	1.80
ACTN4_5 (HAANQSYQYGPSSAGNGAGGGGSMG; listed as Homo sapiens)	2.65
ADAM10_86 (FKVETSNKVL; listed as Homo sapiens)	2.45
AMER2_654 (LAGTTIRATACH; listed as Homo sapiens)	0.95
APLP2_452 (LVETHLAR; listed as Homo sapiens)	2.70
APOA1_86 (EQLGPVTQEFW; listed as Homo sapiens)	1.80
BMPER_43 (LTGSVAKCENEG; listed as Homo sapiens)	2.37
CAP1_300 (FSAPKPQTSPSPKR; listed as Homo sapiens)	2.91
CTSB_109 (WAFGAVEAIS; listed as Homo sapiens)	1.65
DIS3L_75 (FPELKGIIFMQTACQAVQHQR; listed as Homo sapiens)	1.77
ECM1_38 (FQEVGYAAPPSPPLSR; listed as Homo sapiens)	1.54
ECM1_44 (AAPPSPPLSR; listed as Homo sapiens)	2.25
ECM1_108 (QEAVPLQK; listed as Homo sapiens)	3.12
EEF1G_23 (QYSGAQVR; listed as Homo sapiens)	3.18
EMSY_943 (QTVVQVLAVK; listed as Homo sapiens)	1.13
FBLN2_665 (FSQVASNTIPLPLPQPNTCK; listed as Homo sapiens)	1.74
FLNC_2649 (FVGQKNSFTV; listed as Homo sapiens)	3.91
FN1_35 ([code q]MVQPQSPVAVSQSKPGCY; not fully specified (residue 2); listed as Homo sapiens)	1.99
FN1_99 (DKYTGNTYR; listed as Homo sapiens)	1.35
FN1_607 (SSSGPVEVFIT; listed as Homo sapiens)	1.08
FN1_1780 (LQGLRPGSEYTVSVVALH; listed as Homo sapiens)	1.67
FN1_1805 (LIGTQSTAIPAPT; listed as Homo sapiens)	2.43
FN1_2113 (FVTHPGY; listed as Homo sapiens)	1.38
FSTL_1290 (LQKHQETA; listed as Homo sapiens)	2.58
HEG1_51 (GLELQLER; listed as Homo sapiens)	0.90
LASP1_182 (SYGGYKEPAAPVSIQR; listed as Homo sapiens)	0.87
LOX_125 (FQAGYSTSR; listed as Homo sapiens)	3.45

The remaining lines, values ahead:

logFC.mWT.over.Luc	Substance
4.13	ADAM9_74 (GKEHIIHLER; listed as Homo sapiens)
5.35	ADNP2_375 (SQPVGPVNK; listed as Homo sapiens)
2.37	CALU_176 (FTAFLHPEEY; listed as Homo sapiens)
1.35	CCL2_28 (INAPVTCCYNFTNR; listed as Homo sapiens)
2.33	CEP192_728 (DKSTAGR; listed as Homo sapiens)
1.61	DBN1_434 (APVEPATA; listed as Homo sapiens)
5.61	EIF4B_426 (QTGTSTTSSR; listed as Homo sapiens)
4.67	FLNA_689 (VNKPAEFTV; listed as Homo sapiens)
1.99	FN1_1693 (LQPTVEYVVSVYAQNPSG; listed as Homo sapiens)
3.42	FOXG1_235 (LNKCFVKVPRHY; listed as Homo sapiens)
3.54	HEG1_224 (FQTKSGTAS; listed as Homo sapiens)
1.60	KCND1_436 (RLAKSGTTNAFLQYKQNGGLE; listed as Homo sapiens)
1.88	KRT28_2 (SLQFSNGSR; listed as Homo sapiens)
2.71	LOXL1_157 (SVSASAFASTYR; listed as Homo sapiens)
1.25	LOX_60 (LGSQYQPQR; listed as Homo sapiens)

Same assay, conditions: log fold change, ADAMTS7 WT over luciferase

Substance	logFC.mWT.over.Lux
QSOX1_558 (VAAAPELAMGALELESR; listed as Homo sapiens)	0.94
SMOC1_35 (LISDRDPQCNLHCSR; listed as Homo sapiens)	1.75
SPOCK1_126 (HWVGPSNLVK; listed as Homo sapiens)	1.29
SRGN_51 (EEKGPMFELLPGESNKIPR; listed as Homo sapiens)	1.66
SRGN_60 (LPGESNKIPR; listed as Homo sapiens)	3.57
SRGN_62 (GESNKIPR; listed as Homo sapiens)	2.82
STC1_37 (QNSAEVVR; listed as Homo sapiens)	4.56
STC2_239 (HGEAGHHLPEPSSR; listed as Homo sapiens)	1.59
TGFBI_24 (GPAKSPYQLVLQHSR; listed as Homo sapiens)	0.77
TGFBI_497 (VLTPPMGTVMDVLKGDNR; not fully specified (residue 6); listed as Homo sapiens)	0.75
TGFBI_524 (SAGLTETLNR; listed as Homo sapiens)	0.84
TGFBI_534 (EGVYTVFAPTNEAFR; listed as Homo sapiens)	0.91
THBS1_972 (QNDPNWVVR; listed as Homo sapiens)	3.55
TLN1_1501 (HTSALCNSCR; listed as Homo sapiens)	1.31

The next lines start with the values.

logFC.mWT.over.Lux	Substance
1.32	SDC4_106 (LEENEVIPKR; listed as Homo sapiens)
2.62	SERPINH1_27 (AAAPGTAEKLSPKAATLAER; listed as Homo sapiens)
3.21	SRGN_50 (LEEKGPMFELLPGESNKIPR; listed as Homo sapiens)
1.09	STC2_244 (HHLPEPSSR; listed as Homo sapiens)
0.85	TGFBI_43 ([code q]HGPNVCAVQKVIGTNR; not fully specified; listed as Homo sapiens)
0.96	TGFBI_50 (AVQKVIGTNR; listed as Homo sapiens)
0.89	TGFBI_208 (GIVTVNCAR; listed as Homo sapiens)
0.75	TGFBI_276 (TLLAPT[code n]EAFEKIPSETLNR; not fully specified; listed as Homo sapiens)
4.08	TG_1017 (GASALLR; listed as Homo sapiens)
2.65	TMEM132A_52 (LLDAPEHFR; listed as Homo sapiens)
1.63	VASN_138 (HIQPGAFDTLDR; listed as Homo sapiens)
4.48	VASP_229 (AIAGAKLR; listed as Homo sapiens)
